Legend:
MPs = conditions: Kao et al., 1994; cited from earlier work
PMNs [1] = conditions: Kao et al., 1994; cited from earlier work
PMNs [2] = test: PMN chemotaxis assay (ChemoTX microchemotaxis chamber); assay type: cell-based, human; conditions: sample proteins 1 nM, 45 min
Experimental: Cells for the various cytokine assays described were prepared from acid citrate dextrose-treated blood of normal healthy volunteers. Human PMNs were isolated from the blood by centrifugation (700×g) over Histopaque 1077 and 1119 (Sigma). […] This procedure was repeated twice. Human MPs were isolated by centrifugation on Histopaque 1077 (Sigma). The mononuclear fraction was obtained, washed twice in Hanks' balanced salt solution, resuspended in RPMI-1640 medium (Sigma) containing 10% heat-inactivated fetal bovine serum (Sigma), plated in tissue culture flasks, and incubated in a 6% CO2 incubator at 37° C. for 1-2 hours (Kumagai et al., 1979, J. Immunol. Methods 29:17-25). Nonadherent cells were removed by washing the flasks three times with Hanks' balanced salt solution, and adherent cells were harvested by incubation with calcium-magnesium free phosphate-buffered saline containing 2 mM EDTA for 15 minutes at 4° C., followed by extensive washing.
PMN chemotaxis assays were performed in a ChemoTX microchemotaxis chamber (described herein). Sample proteins (1 nM) were added to the lower compartment of chemotaxis chambers, and 10^4 PMNs were added to the upper compartment. Chambers were incubated for 45 min, and migrating cells were counted in HPFs. Each determination shown in FIG. 2 represents the average of nine HPF measurements.

PMNs [3] = test: 125I-human mini TyrRS binding and competition assay on PMNs; conditions: 10 nM 125I-mini TyrRS, 200-fold molar excess of unlabeled ligand, on ice 2 hours
Experimental: The interaction of human mini TyrRS and PMNs was examined in binding studies using radioiodinated TyrRS molecules (Moser et al., 1993, J. Biol. Chem. 268:7125-28). Custom radioiodination of mini TyrRS with was performed by Research & Diagnostic Antibody (Richmond, Calif.). In the binding assays, 2×10^6 PMNs were first suspended in 120 μl of RPMI-1640 medium containing 20 mM Hepes (pH 7.4) and 10 mg/ml bovine serum albumin. […] Following incubation, cells were separated from unbound radioactivity by centrifugation at approximately 8000×g for 2 minutes through 500 μL, of a 10% sucrose/phosphate-buffered saline (PBS) cushion. The supernatant was aspirated, and the cell sediment was resuspended using EcoLite (ICN Biomedicals, Irvine, Calif.) and analyzed in a scintillation counter.
Following incubation, cells were separated from unbound radioactivity as described herein.

[4] = tested on: human umbilical vein endothelial cells (HUVECs); test: HUVEC migration assay (modified Boyden chamber); assay type: cell-based; conditions: 50 nM TyrRS molecule or 0.5 nM VEGF165, 6 hours
Experimental: In contrast, α-chemokines lacking the ELR motif act as angiostatic factors (id.). In order to evaluate the angiogenic activity of TyrRS, which contains the ELR motif, human full-length TyrRS and human mini TyrRS were first examined for their ability to induce endothelial cell migration. Such angiogenic assays were performed using human umbilical vein endothelial cells (HUVECs) (Clonetics, Walkersville, Md.). Cells were maintained in EGM-2® BULLETKIT® medium (Clonetics) in an atmosphere of 6% CO2 at 37° C. according to the supplier's instructions.
Cell migration assays were performed using the modified Boyden chamber (6.5 mm Transwells) with polycarbonate membranes (8.0 μm pore size) (Costar Corp., Cambridge, Mass.) (Masood et al., 1999, Blood 93:1038-44). Wells were coated overnight with 25 μg/mL human fibronectin (Biosource International, Camarillo, Calif.) in PBS and then allowed to air-dry. HUVECs were suspended in Dulbecco's modified Eagle's medium (DMEM) (Gibco-BRL, Gaithersburg, Md.) containing 0.1% BSA (Sigma) and 2×10^5 cells per well were added to the upper chamber. The chemotactic stimulus (50 nM of a given TyrRS molecule or 0.5 nM of human vascular endothelial growth factor-165 (VEGF165) (Biosource International, Camarillo, Calif.)) was placed in the lower chamber, and the cells were allowed to migrate for 6 hours at 37° C. in a 6% CO2 incubator. After incubation, non-migrant cells were removed from the upper face of the Transwell membrane with a cotton swab and migrant cells, those attached to the lower face, were fixed in methanol and visualized with the HEMACOLOR® stain set (EM Diagnostic Systems, Gibbstown, N.J.). Migrating cells were counted in high-power fields (HPFs). HUVECs were suspended in media with the inhibitor for 30 minutes before placement in the chamber. Each determination shown in FIG. 16 represents the average of nine HPF measurements.

[5] = tested on: chick chorioallantoic membrane (CAM); test: In vivo angiogenesis assay in chick chorioallantoic membrane (CAM); conditions: 250 ng TyrRS molecule or 25 ng VEGF165 on filter disk, 72 hours
Experimental: In vivo angiogenesis assays were conducted in chick chorioallantoic membrane (CAM) (Nicolaou et al., 1998, Bioorg. Med. Chem. 6:1185-208). Ten-day-old chick embryos were purchased from Mcintyre Poultry (Lakeside, Calif.) and were incubated at 37° C. and 70% humidity. A small hole was made with a small crafts drill (Dremel, Emerson Electric, Racine, Wis.) directly over the air sac at the end of the egg. The embryos were candled to determine a location to drill a second hole directly over embryonic blood vessels. […] A window was cut in the eggshell over the dropped CAM, exposing the CAM to direct access for experimental manipulation. Cortisone acetate-treated 5 mm filter disks were soaked with a particular protein sample (25 ng of VEGF165 or 250 ng of a given TyrRS molecule) and the filter disks added directly to the CAMs, which were relatively devoid of preexisting blood vessels. The windows were sealed with sterile tape and incubated at 37° C. […] After 72 hours, the CAM tissue associated with the filter disk was harvested and quantified using a stereomicroscope. Angiogenesis was assessed as the number of visible blood vessel branch points within the defined area of the filter disks. Each determination shown in FIG. 17 represents the mean from 5-8 embryos.

Molecule	MP migration induced by synthetic peptide (literature) (MPs)	PMN migration induced by synthetic peptide (literature) (PMNs [1])	PMN chemotaxis (PMN migration) (PMNs [2])	inhibition of 125I-mini TyrRS binding to PMNs by unlabeled ligand (PMNs [3])	HUVEC chemotaxis [4]	in vivo angiogenesis in chick CAM (blood vessel branch points) [5]
R-I-G-R-I-I-T (RIGRIIT; listed as Homo sapiens) [synthetic peptide of seven residues near the amino-terminus of human mature EMAP II, Cys replaced by Arg]	can induce PMN or MP migration	can induce PMN or MP migration				
mini TyrRS mutant: mini TyrRS in which the ELR motif was mutated to ELQ (Glu-Leu-Gln) (protein, His6 tag; Human mini TyrRS mutant in pET20B) MGDAPSPEEKLHLITRNLQEVLGEEKLKEILKERELKIYWGTATTGKPHVAYFVPMSKIADFLKAGCEVTILFADLHAYLDNMKAPWELLELQVSYYENVIKAMLESIGVPLEKLKFIKGTDYQLSKEYTLDVYRLSSVVTQHDSKKAGAEVVKQVEHPLLSGLLYPGLQALDEEYLKVDAQFGGIDQRKIFTFAEKYLPALGYSKRVHLMNPMVPGLTGSKMSSSEEESKIDLLDRKEDVKKKLKKAFCEPGNVENNGVLSFIKHVLFPLKSEFVILRDEKWGGNKTYTAYVDLEKDFAAEVVHPGDLKNSVEVALNKLLDPIREKFNTPALKKLASAAYPDPSKQKPMAKGPAKNSEPEEVILEHHHHHH			did not induce PMN migration	did not inhibit the binding	no chemotaxis was observed	failed to induce in vivo angiogenesis
